From patent US10487147B2, “Anti-PD-L1 antibodies and uses thereof” (Merck Patent GmbH, priority 2011, dated 2019) come the findings set out here.

Test system in one data set: not listed separately
As to the kind of experiment: Fluorescence monitored thermal unfolding assay of wild type and mutant PD-L1 proteins. The format is physicochemical. The note with it: temperature midpoint of fluorescently monitored thermal denaturation of the PD-L1 antigen protein. The text has this: As the temperature increases, thermal denaturation of the protein exposes the hydrophobic core residues and this can be monitored by an increase in fluorescence of the dye. […] The data ware fit to equation 1 (adapted from Bullock, A. N. et al. Thermodynamic stability of wild-type and mutant p53 core domain. PNAS 94, 14338-14342 (1997)) to determine the temperature at the inflection point of the curve (T1/2).
As for “A51Q: PD-L1 point mutant antigen expressed in HEK cells [Antibody A51Q]”, the T1/2 was 57.3 +/− 0.6 °C.

Compound “A52R: PD-L1 point mutant antigen expressed in HEK cells [Antibody A52R]” came in with a T1/2 of 55.2 °C.

The compound “A109E: PD-L1 point mutant antigen expressed in HEK cells [Antibody A109E]” displayed a T1/2 of 54.0 °C. Turning to “A121R: PD-L1 point mutant antigen expressed in HEK cells [Antibody A121R]”, the T1/2 is 54.0 +/− 0.5 °C.

With “D26A: PD-L1 point mutant antigen expressed in HEK cells [Antibody D26A]”, the T1/2 is 52.8 +/− 0.2 °C.

On to “D49A: PD-L1 point mutant antigen expressed in HEK cells [Antibody D49A]”, for which the T1/2 entry was “BP (>49) ° C”.

Take “D61A: PD-L1 point mutant antigen expressed in HEK cells [Antibody D61A]”: the T1/2 stood at 52.0 °C.

As to “D73A: PD-L1 point mutant antigen expressed in HEK cells [Antibody D73A]”, the T1/2 is 53.5 +/− 2.1 °C. As for “E45A: PD-L1 point mutant antigen expressed in HEK cells [Antibody E45A]”, the T1/2 is 58.0 °C.

On to “E58A: PD-L1 point mutant antigen expressed in HEK cells [Antibody E58A]”, for which the T1/2 is 54.6 +/− 0.6 °C.

For “E60A: PD-L1 point mutant antigen expressed in HEK cells [Antibody E60A]”, the T1/2 was 50.4 °C. On the same count and under the same terms, the value for “E71A: PD-L1 point mutant antigen expressed in HEK cells [Antibody E71A]” was 52.8 +/− 1.5 °C; that for “H78A: PD-L1 point mutant antigen expressed in HEK cells [Antibody H78A]” was 56.6 +/− 0.6 °C; that for “I54A: PD-L1 point mutant antigen expressed in HEK cells [Antibody I54A]” was 57.2 +/− 2.5 °C. Same read-out and setting: as for “I54K: PD-L1 point mutant antigen expressed in HEK cells [Antibody I54K]”, the figure is 57.2 °C. Compound “K46A: PD-L1 point mutant antigen expressed in HEK cells [Antibody K46A]” yielded a T1/2 of 51.6 °C. Same read-out and setting: the value for “K75A: PD-L1 point mutant antigen expressed in HEK cells [Antibody K75A]” was 57.7 +/− 1.8 °C. Regarding “K105A: PD-L1 point mutant antigen expressed in HEK cells [Antibody K105A]”, the T1/2 is 57.0 +/− 1.5 °C.

Take “K124A: PD-L1 point mutant antigen expressed in HEK cells [Antibody K124A]”: the T1/2 was 53.1 +/− 0.6 °C. The same measure, in the same setting: as for “K129A: PD-L1 point mutant antigen expressed in HEK cells [Antibody K129A]”, the figure is 50.8 +/− 1.2 °C; as for “L27A: PD-L1 point mutant antigen expressed in HEK cells [Antibody L27A]”, 51.7 +/− 0.5 °C. For the compound “M115A: PD-L1 point mutant antigen expressed in HEK cells [Antibody M115A]”, the T1/2 was 51.4 +/− 0.1 °C. Still for that read-out and setting: as for “Q107A: PD-L1 point mutant antigen expressed in HEK cells [Antibody Q107A]”, the figure is 58.6 +/− 2.0 °C.

Consider “R82A: PD-L1 point mutant antigen expressed in HEK cells [Antibody R82A]”, for which the T1/2 was 51.2 +/− 0.4 °C.

As for “R113A: PD-L1 point mutant antigen expressed in HEK cells [Antibody R113A]”, the T1/2 was 56.7 °C.

For the compound “R125A: PD-L1 point mutant antigen expressed in HEK cells [Antibody R125A]”, the T1/2 was 51.8 +/− 0.2 °C. Same read-out and setting: as for “S79A: PD-L1 point mutant antigen expressed in HEK cells [Antibody S79A]”, the figure is 56.3 +/− 0.9 °C; as for “S79E: PD-L1 point mutant antigen expressed in HEK cells [Antibody S79E]”, 60.0 °C. “S80A: PD-L1 point mutant antigen expressed in HEK cells [Antibody S80A]” had a T1/2 of 57.0 °C. Same read-out and setting: as for “S80E: PD-L1 point mutant antigen expressed in HEK cells [Antibody S80E]”, the figure is 56.8 +/− 4.5 °C. Still for that read-out and setting: the value for “S117A: PD-L1 point mutant antigen expressed in HEK cells [Antibody S117A]” was 52.7 +/− 0.3 °C. “T20A: PD-L1 point mutant antigen expressed in HEK cells [Antibody T20A]”: the T1/2 was 52.5 +/− 0.2 °C. “T127A: PD-L1 point mutant antigen expressed in HEK cells [Antibody T127A]”: the T1/2 was 51.4 +/− 0.0 °C. On the same count and under the same terms, as for “T127K: PD-L1 point mutant antigen expressed in HEK cells [Antibody T127K]”, the figure is 54.0 °C. Still for that read-out and setting: the value for “V68R: PD-L1 point mutant antigen expressed in HEK cells [Antibody V68R]” was 56.0 °C; that for “V76A: PD-L1 point mutant antigen expressed in HEK cells [Antibody V76A]” was 55.7 °C.

For “V111A: PD-L1 point mutant antigen expressed in HEK cells [Antibody V111A]”, the T1/2 is 50.2 +/− 0.2 °C. In the case of “V111E: PD-L1 point mutant antigen expressed in HEK cells [Antibody V111E]”, the T1/2 is 51.6 +/− 0.0 °C. As to “Y56A: PD-L1 point mutant antigen expressed in HEK cells [Antibody Y56A]”, the T1/2 was 57.5 +/− 0.7 °C. Still for that read-out and setting: as for “Y56K: PD-L1 point mutant antigen expressed in HEK cells [Antibody Y56K]”, the figure is 55.4 +/− 1.3 °C.

Another data set has as its system MC38 colon carcinoma cells. As to the kind of experiment: Combination with low dose cyclophosphamide in MC38 subcutaneous tumor model. The format is in vivo, mice. Particulars: CPA 100 mg/kg or A09-246-2 100 μg. Here is the method:
Low-dose CPA is known to enhance anti-tumor immune responses through the inhibition of immunosuppressive regulatory T cells. […] Mice were inoculated […] in the right flank with 1×10^6 MC38 colon carcinoma cells. When tumors reached a mean volume of ˜50 mm^3, mice were sorted into treatment groups (N=14) on day 0. […] Using an ELISPOT assay, the effects of treatment on the magnitude of CD8^+ T cell responses directed against the well-characterized p15E tumor antigen were measured.
For the compound `O=P1(N(CCCl)CCCl)NCCCO1` (centres unmarked) [CPA, cyclophosphamide], the “p15E-reactive CD8+ T cells (ELISPOT), single agent” value was ~100 spots.

Test system in another data set: not listed separately
As to the kind of experiment: Analytical size exclusion chromatography of wild type and mutant PD-L1 proteins. Type of data set: physicochemical. The note with it: qualitative appearance of the PD-L1 antigen protein on size exclusion chromatography.
In the case of “Q107A: PD-L1 point mutant antigen expressed in HEK cells [Antibody Q107A]”, the SEC entry is given as “M/T”.

Consider “V68R: PD-L1 point mutant antigen expressed in HEK cells [Antibody V68R]”, for which the SEC entry was “M/T”.

Another data set concerns PANC02 cells. As to the kind of experiment: Combination with Gemcitabine in the PANC02 orthotopic model. The note with it: GEM 150 mg/kg or A09-246-2 400 μg per mouse alone.
`Nc1ccn([C@@H]2O[C@H](CO)[C@@H](O)C2(F)F)c(=O)n1` [GEM, Gemcitabine]: the “survival time, monotherapy” value is recorded as “failed to extend survival time”.
